Assay results taken from article PMC6587469.
Values joined by “and” are separate entries in the source; they are usually repeats but may differ in a detail not shown here. Equal entries are not always repeated.

Columns and labels:
[1] = molecular target: MabSelect SuRe protein A ligand: tetrameric chain of Z-domains (recombinant form of the B domain of (Staphylococcus aureus)); test: SAXS
[2] = molecular target: MabSelect SuRe protein A ligand: tetrameric chain of Z-domains (recombinant form of the B domain of (Staphylococcus aureus)); test: batch adsorption isotherm

Substance: Trastuzumab (antibody)
- stoichiometry N (antibody : protein A chain) [1]: 1 and 2
- stoichiometry N (antibody molecules per ligand) [2]: 2
